# Earlier results in article PMC10219547.
# Like-named read-outs stand apart in the source and are kept apart here.
# Assays:
# PTH1R (Homo sapiens) [1] = biological target: PTH1R (Homo sapiens) (UniProt Q03431)
# PTH1R (Homo sapiens) [2] = biological target: PTH1R (Homo sapiens) (UniProt Q03431); remark: listed apart in the source
# Sequence of UniProt Q03431 (Q03431 27-593): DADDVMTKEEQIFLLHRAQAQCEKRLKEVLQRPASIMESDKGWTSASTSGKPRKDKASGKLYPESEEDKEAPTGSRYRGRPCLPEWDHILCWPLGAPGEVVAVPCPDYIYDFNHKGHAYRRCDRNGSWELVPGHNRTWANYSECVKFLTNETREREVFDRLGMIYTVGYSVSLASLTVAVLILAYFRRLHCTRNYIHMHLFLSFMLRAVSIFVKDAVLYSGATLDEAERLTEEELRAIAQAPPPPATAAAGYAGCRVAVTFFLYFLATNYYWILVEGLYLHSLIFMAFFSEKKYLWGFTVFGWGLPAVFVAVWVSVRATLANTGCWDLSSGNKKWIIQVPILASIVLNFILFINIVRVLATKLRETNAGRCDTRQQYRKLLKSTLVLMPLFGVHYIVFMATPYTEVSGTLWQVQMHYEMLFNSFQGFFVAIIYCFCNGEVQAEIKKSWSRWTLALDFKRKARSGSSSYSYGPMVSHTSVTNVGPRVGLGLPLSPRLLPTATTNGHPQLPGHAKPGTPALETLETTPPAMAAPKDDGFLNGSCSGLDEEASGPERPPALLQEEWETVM
Kd (PTH1R (Homo sapiens) [1]),Kd (PTH1R (Homo sapiens) [2]),Substance
60 nM,–,TIP39 (from UniProt Q96A98)
–,17 nM,TIP(7-39) 7-39 (from UniProt Q96A98)
